According to article PMC12913940:

Target: Crassostrea gigas GABARAPL2, Flag-tagged (Crassostrea gigas)
Experiment: co-IP

Crassostrea gigas starch-binding domain-containing protein 1 (STBD1), HA-tagged (natural protein)
fold intensity of the co-IP against the other three Atg8 family members: 4.4 fold
